Reference: patent US20250011397A1 (HOSPITAL FOR SICK CHILDREN, published 2025)
Several values for one entry are separate records, joined by “and”; a condition that tells them apart may be missing. Identical values can stand only once.

T1: mouse FcRn (mouse, UniProt Q61559 22-297; P01887 21-119)
T1 construct: also called mFcRn
T1 sequence (looked up) 1: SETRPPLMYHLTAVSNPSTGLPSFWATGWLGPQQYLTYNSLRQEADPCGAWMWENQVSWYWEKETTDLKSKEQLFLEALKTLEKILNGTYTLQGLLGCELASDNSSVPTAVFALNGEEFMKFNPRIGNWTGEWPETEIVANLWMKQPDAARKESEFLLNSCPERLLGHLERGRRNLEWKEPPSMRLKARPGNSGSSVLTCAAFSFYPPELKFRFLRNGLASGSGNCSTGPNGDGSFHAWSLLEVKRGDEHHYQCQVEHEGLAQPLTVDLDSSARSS
T1 sequence (looked up) 2: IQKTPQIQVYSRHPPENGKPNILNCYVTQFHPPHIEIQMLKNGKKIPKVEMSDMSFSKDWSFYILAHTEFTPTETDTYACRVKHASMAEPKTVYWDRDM

T2: mouse FcγRI (mouse, UniProt P26151 25-297)
T2 sequence (looked up): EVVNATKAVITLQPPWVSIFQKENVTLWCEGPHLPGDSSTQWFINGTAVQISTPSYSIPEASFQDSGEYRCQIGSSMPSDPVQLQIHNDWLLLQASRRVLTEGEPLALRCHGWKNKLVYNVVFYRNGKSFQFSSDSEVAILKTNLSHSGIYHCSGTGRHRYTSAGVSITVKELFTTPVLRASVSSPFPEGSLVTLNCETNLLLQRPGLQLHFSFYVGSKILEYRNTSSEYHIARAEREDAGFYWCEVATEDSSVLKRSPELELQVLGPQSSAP

B1: HD37 (anti-hCD19) mouse IgG2a, parental IgG (antibody)
chain: DILLTQTPASLAVSLGQRATISCKASQSVDYDGDSYLNWYQQIPGQPPKLLIYDASNLVSGIPPRFSGSGSGTDFTLNIHPVEKVDAATYHCQQSTEDPWTFGGGTKLEIKRADAAPTVSIFPPSSEQLTSGGASVVCFLNNFYPKDINVKWKIDGSERQNGVLNSWTDQDSKDSTYSMSSTLTLTKDEYERHNSYTCEATHKTSTSPIVKSFNRNECGGSSGSGSGSTGTSSSGTGTSAGTTGTSASTSGSGSGGGGGSGGGGSAGGTATAGASSGSGSSGSSSSGGTGTGQVQLQQSGAELVRPGSSVKISCKASGYAFSSYWMNWVKQRPGQGLEWIGQIWPGDGDTNYNGKFKGKATLTADESSSTAYMQLSSLASEDSAVYFCARRETTTVGRYYYAMDYWGQGTSVTVSSSQSFPNVFPLVSCESPLSDKNLVAMGCLARDFLPSTISFTWNYQNNTEVIQGIRTFPTLRTGGKYLATSQVLLSPKSILEGSDEYLVCKIHYGGKNRDLHVPIPSKPCPPCKCPAPNLLGGPSVFIFPPKIKDVLMISLSPIVTCVVVDVSEDDPDVQISWFVNNVEVHTAQTQTHREDYNSTLRVVSALPIQHQDWMSGKEFKCKVNNKDLPAPIERTISKPKGSVRAPQVYVLPPPEEEMTKKQVTLTCMVTDFMPEDIYVEWTNNGKTELNYKNTEPVLDSDGSYFMYSKLRVEKKNWVERNSYSCSVVHEGLHNHHTTKSFSRTPGK
notes: also called mIgG2a control; HD37 single chain IgG2a
B2: 4A8 IgG (antibody, V domains shown)
VH: EVQLVESGAEVKKPGASVKVSCKVSGYTLTELSMHWVRQAPGKGLEWMGGFDPEDGETMYAQKFQGRVTMTEDTSTDTAYMELSSLRSEDTAVYYCATSTAVAGTPDLFDYYYGMDVWGQGTTVTVSS
VL: EIVMTQSPLSSPVTLGQPASISCRSSQSLVHSDGNTYLSWLQQRPGQPPRLLIYKISNRFSGVPDRFSGSGAGTDFTLKISRVEAEDVGVYYCTQATQFPYTFGQGTKVDIK
notes: also called IgG 4A8

Tests used:
mouse FcRn [1] = target: T1, mouse FcRn; assay: pH 5.6
mouse FcRn [2] = target: T1, mouse FcRn
mouse FcγRI = target: T2, mouse FcγRI
[3] = target: SARS-CoV-2 Spike on HIV-based pseudotyped virus (Spike plasmid BEI NR52310) (SARS-CoV-2, UniProt P0DTC2 14-1273); assay: cell-based or functional assay

| Binder | Kd (mouse FcRn [1]) | koff (mouse FcRn [1]) | kon (mouse FcRn [2]) | Kd (mouse FcγRI) | koff (mouse FcγRI) | kon (mouse FcγRI) | Median IC50 (PsV neutralization) [3] |
| --- | --- | --- | --- | --- | --- | --- | --- |
| B1 | 1.06 nM | 0.000123 s⁻¹ | 116000 M⁻¹ s⁻¹ | 8.63 nM | 0.000451 s⁻¹ | 52200 M⁻¹ s⁻¹ |  |
| B2 |  |  |  |  |  |  | > 100 µg/mL and > 0.66 µM |
